In patent US9803013B2, “Biological materials and uses thereof” (BioInvent International AB, priority 2005, dated 2017):

T1: mouse FcγRIV (Mus musculus, UniProt A0A0B4J1G0)
T1 construct: made in house; host or cells: HEK293E cells (transient)
T1 sequence (A0A0B4J1G0 21-249): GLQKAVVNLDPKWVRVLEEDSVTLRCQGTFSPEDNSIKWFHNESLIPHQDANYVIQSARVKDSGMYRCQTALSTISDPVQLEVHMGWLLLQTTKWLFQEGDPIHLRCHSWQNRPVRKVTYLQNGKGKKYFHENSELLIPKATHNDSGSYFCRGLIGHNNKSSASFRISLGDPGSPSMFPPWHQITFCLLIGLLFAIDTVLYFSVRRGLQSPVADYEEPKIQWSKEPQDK

B1: BI-505 IgG1 N297Q: BI-505 variant with abolished FcγR-binding (antibody, V domains shown)
VH: EVQLLESGGGLVQPGGSLRLSCAASGFTFSNAWMSWVRQAPGKGLEWVAFIWYDGSNKYYADSVKGRFTISRDNSKNTLYLQMNSLRAEDTAVYYCARYSGWYFDYWGQGTLVTVSS
VL: QSVLTQPPSASGTPGQRVTISCTGSSSNIGAGYDVHWYQQLPGTAPKLLIYDNNNRPSGVPDRFSGSKSGTSASLAISGLRSEDEADYYCQSYDSSLSAWLFGGGTKLTVLG
B2: BI-505 IgG4: BI-505 variant with reduced FcγR-binding compared to wildtype BI-505 IgG1 (antibody, V domains shown)
VH: B1 VH
VL: B1 VL

Legend:
[1] = tested on: endothelial cells (HUVEC, HMVEC); test: HUVEC and HMVEC apoptosis assay; type: cell-based; details: resting or IFN-γ activated HUVEC/HMVEC, antibody cross-linked or not
Experimental: (FIG. 23G) Antibody-induced endothelial cell apoptosis. HUVEC or HMVEC endothelial cells were incubated with paclitaxel (positive control), BI-505 or isotype control IgG in the presence or absence of cross-linking mAb. Apoptosis was measured by flow-cytometry following staining of cells with Annexin V-AF488.
Based on BI-505's documented ability to confer Fc:FcγR-dependent antitumor activity in malignant B cells, and a proposed general negative role for complement activation with regard to antibody tolerability (Lim et al.; van der Kolk et al., 2001), direct cytotoxic effects (PCD, ADCC, and CDC) of BI-505 in ICAM-1-expressing human peripheral blood B cells and endothelial cells were examined.
HUVEC (Cascade Biologics, pool of donors) and HMVEC (Cascade Biologics) were plated in 6-well plates (80 000-120 000 cells/well) in the presence or absence of 200 U/mL IFNγ, in order to induce ICAM-1 expression. Media was changed the day before apoptosis-induction experiments were performed and titrated concentrations of BI-505, enlimomab or isotype control antibody were added to the cells, in the presence or absence of cross-linking Fab (ab′)2 (same as the B-cell protocol). […] Necrotic cells were identified by increased fluorescence in the FL-4 channel and apoptotic cells by increased signal in the FL-1 channel on a flow cytometer (FACSCalibur, BD Bioscience).

primary patient MM cells = test: SCID-hu mouse model of multiple myeloma; type: in vivo
Experimental: Bone marrow cells (>20% plasma cells) from myeloma patients (two patients in experiment 1 [top panel] and two different patients in experiment 2 [lower panel]) were injected into transplanted human fetal bones of SCID-hu mice. Four weeks after myeloma cell inoculation mice were divided into four groups to yield similar mean hIgG levels between groups, each group comprising mice grafted with MM cells from the different patient donors used in the experiment, and twice weekly treatment with 2 mg/kg BI-505, 1 mg/kg bortezomib or 2 mg/kg control human IgG was started (arrow). […] Graphs show mean hIgG concentrations.
Primary human MM cells depend on interactions with bone marrow stromal cells to proliferate and survive. The SCID-hu mouse harbors a human microenvironment where primary patient MM cells proliferate and induce pathology similar to human clinical MM (Yaccoby et al., 1998). MM cell derived human IgG titers were detected (>10 μg/ml) in the serum of SCID-hu mice four weeks after implantation of human MM cells to transplanted human bones, at which time treatment with antibodies (2 mg/kg) or bortezomib (1 mg/kg) began. Human IgG titers increased steadily in control treated SCID-hu mice over the course of experimentation to reach maximal concentrations of 40±5 μg/ml just before sacrifice (FIG. 18B and FIG. 19). […] Two independent experiments were performed with similar results (FIG. 18B and FIG. 19), each with MM cells from two different patient donors (n=4).
Human fetal femurs and tibias, obtained at 17 to 22 gestational weeks, were cut into fragments and implanted subcutaneously in SCID mice (SCID-hu) at age 6 to 8 weeks. Each animal was implanted with one bone fragment. Four weeks after bone implantation, 2 to 14×10^6 bone marrow cells from each patient (two patients per experiment for a total of four patients in two independent experiments, n=4), containing>20% plasma cells were injected directly into the human bone of 6 to 8 SCID-hu mice in a final volume of 30 to 40 μl of phosphate-buffered saline (PBS). One group of mice was implanted with bone only and served as “healthy” bone control. Mouse sera were serially monitored for human immunoglobulin (hIg) and the isotype levels were used as an indicator of myeloma cell growth by elisa. When hIg level reached 10 μg/mL or higher in 2 consecutive measurements after 4 weeks of injection of the tumor cells, the mice were divided into four groups to yield similar mean hIgG levels between groups, each group comprising mice grafted with MM cells from the different patient donors used in each experiment. The four treatment groups were: healthy control group (no myeloma cells injected and no drug treatment), isotype control group (myeloma cells injected and treated with isotype control IgG, 2 mg/kg, i.p., twice weekly), BI505 group (myeloma cells injected and treated with BI505, 2 mg/kg, i.p., twice weekly) and bortezomib group (myeloma cells injected and treated with 1 mg/kg, i.p., twice weekly). In some graphs hIgG levels were normalized to pretreatment (4 weeks) levels and the percent increase or decrease in hIgG levels as a function of treatment and time was analyzed. Normalized data from animals receiving the same treatment (control IgG, BI-505 or bortezomib) but grafted with MM cells from each of the four different patient donors in the two experiments were pooled and statistical difference was assessed by grouped 2-way ANOVA test and Bonferroni's posttest using GraphPad Prism 5 software. Patient myeloma cells were taken after informed consent and with the approval of the local ethics committee. For x-radiography evaluation and quantification of bone mineral density (BMD) mice in the four groups were sacrificed and the implanted human bones were taken out and fixed in 10% formalin solution. Radiographs were taken with an AXR Minishot-100 beryllium source instrument (Associated X-Ray Imaging Corp., Haverhill, Mass., USA) and 100 s exposure at 30 kV. […]

mouse FcγRIV = target: T1, mouse FcγRIV; test: BiaCore analysis of BI-505 Fc-variant binding to FcγR
Experimental: (FIG. 20B) BiaCore analysis of BI-505 Fc-variant antibodies binding to mouse FcγRIV.
(§1) His-tagged human FcγRIIIa and mouse FcγRIV were transiently expressed in HEK293E cells, purified using Ni-NTA chromatography, and characterized by SDS-PAGE and/or Biacore. Surface plasmon resonance (SPR) measurements were performed using a Biacore 3000 instrument. Goat F(ab)′2 α-human-F(ab)′2 fragments (Jackson Laboratories) were immobilized with a CM-5 chip using a standard amine coupling protocol. BI-505 (IgG1) and IgG4 or IgG1 297Q variants of BI-505 were diluted to 15 and 60 μg/mL respectively and added to the surface at 10 μL/min for 3 min. His-tagged human FcγRIIIa or mouse FcγRIV was pre-incubated with an α-HIS antibody (R&D Systems) at a 2:1 molar ratio before addition to the chip surface, 30 μL/min, for 1 min. After each cycle the surface was regenerated twice with glycine buffer pH 1.7.

human FcγRIIIa = target: T2, human FcγRIIIa (Homo sapiens, UniProt P08637); test: as above
T2 construct: made in house; host or cells: HEK293E cells (transient)
T2 sequence (P08637 17-254): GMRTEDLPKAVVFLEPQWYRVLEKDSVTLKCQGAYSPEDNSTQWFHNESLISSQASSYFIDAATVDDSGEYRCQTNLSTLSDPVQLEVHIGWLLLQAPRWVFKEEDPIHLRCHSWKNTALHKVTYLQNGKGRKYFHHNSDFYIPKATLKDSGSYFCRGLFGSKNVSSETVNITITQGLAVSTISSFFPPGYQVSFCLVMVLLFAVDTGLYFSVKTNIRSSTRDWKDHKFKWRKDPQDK
Experimental: (FIG. 20C) BiaCore analysis of BI-505 Fc-variant antibodies binding to human FcγRIIIa.
as §1

RPMI-8226 cells = test: Macrophage ADCP; type: cell-based; details: RPMI-8226, human macrophages
Experimental: (§2) Cultured macrophages were detached and plated in flat 96-well plates at 50 000 cells/well and placed in 37° C. CFSE-stained target cells were incubated with antibodies for up to 1 hr on ice. After washing, the different cell solutions were added to the culture plates containing macrophages at a ratio of 5:1 (Target cells:Macrophages). Thereafter, the culture plates were incubated at 37° C. for 1-2 hr (primary patient MM cells) or 16 hr (RPMI-8226 cells). The percentage of macrophages that had phagocytosed tumor cells (CFSE^+, CD206^+) per total analyzed macrophages was determined following gating and acquisition of 5000 CD206^+ cells/sample.
(§3) Buffy coats from healthy human donors were ordered through the local blood central at Lund University Hospital and Halmstad Hospital. Peripheral blood mononuclear cells (PBMCs) were first extracted using Ficoll-Paque PLUS (GE Healthcare Life Sciences), followed by isolation of monocytes with CD14 MicroBeads and MACS separation (Miltenyi Biotec). The monocytes were cultured in RPMI 1640 medium with 10% heat-inactivated FBS (Invitrogen) and 25 ng/mL of recombinant human M-CSF (R&D Systems) for 6-14 days, causing differentiation into macrophages. Medium with M-CSF was changed every 2-3 days upon initiation of cultures.
(§4) RPMI-8226 cells (ATCC) were continuously cultured in RPMI 1640 medium supplemented with 10 mM HEPES, 1 mM sodium pyruvate and 10% FBS. For multiple myeloma cells, freshly isolated bone marrow samples were donated by patients at Lund University Hospital and subsequently processed with Ficoll-Paque PLUS. Negative isolation of malignant plasma cells was then performed using the Plasma Cell Isolation Kit II according to the manufacturer's instructions (Miltenyi Biotec).
(§5) At least 4 h before co-culture with target cells the cultured macrophages were detached with Accutase (Sigma Aldrich), before plated in flat 96-well plates at 50 000 cells/well and placed in 37° C. […] After washing, the different cell solutions were added to the culture plates containing macrophages at a ratio of 5:1 (Target cells:Macrophages). Thereafter, the culture plates were incubated at 37° C. for 1-2 hr (primary patient MM cells) or 16 hr (RPMI-8226 cells). Next, samples were stained with APC-conjugated anti-CD206 antibody (BD Biosciences), before harvested by scraping the culture plate wells. The resulting cell solutions were then analyzed by flow cytometry, where CD206^+ macrophages were gated and acquired at 5000 cells/sample. A cut-off level identifying CFSE^+, CD206^+ double positive (phagocytic) macrophages was set for each experimental sample series. This level differed between the individual assays since the magnitude of basic (unstimulated) phagocytosis varied (different donors and time-points) among the experiments.

[2] = tested on: primary patient's MM cells; test: Macrophage ADCP; type: cell-based; details: human macrophages
Experimental: as §2, §3, §4, §5

[3] = mouse, 2 mg/kg
Experimental: Blood samples collected from the vena cava were centrifuged at 2500 g for 15 min to obtain serum and the samples were stored at −20° C.
Sera were prepared from blood samples collected from the vena saphena from 3 animals in each group at different time-points during the course of in vivo experimentation. Briefly, ELISA plates were coated over night with human ICAM-1 protein. The following day, plates were incubated with the serum samples. Biotinylated goat-anti-BI-505 was used for detection of BI-505 in the serum samples. Sera were analysed by ELISA to determine BI-505 trough levels. Trough BI-505 serum concentrations were then plotted as a function of dose and were fitted using five parameter log-log curve and XLfit software (IDBS, Guildford, United Kingdom).

ARH-77 tumors = test: SCID/ARH-77 subcutaneous xenograft model; details: established ARH-77 tumors
Experimental: For subcutaneous grafting, 1-5×10^6 tumor cells (RPMI-8226, NCI-H929, EJM, OPM-2, ARH-77, or Daudi) were subcutaneously injected at a volume of 100 μl into the left flank of anesthetized mice as described in the Supplemental Information. […] Treatment with saline, isotype control IgG, bortezomib, lenalidomide, dexamethasone, or BI-505 started on day 5 (RPMI-8226). Treatment with melphalan started on day 10. BI-505 or isotype IgG mAb was administered i.v. at 2 mg/kg/inj twice weekly for 8 weeks; bortezomib at 1 mg/kg/inj once weekly for 8 weeks; lenalidomide orally at 2 mg/kg/inj for 2 cycles consisting of 5 days of treatment and 2 days of wash out; melphalan i.v. at 3 mg/kg/inj once weekly for 8 weeks; and dexamethasone at 6 mg/kg/inj three times weekly for 2 weeks.
Mice were anaesthetized with a mixture of sevofluran and oxygen prior to myeloma cell inoculation and 1-10×10^6 myeloma cells were then subcutaneously injected in a volume of 100 μl into the left flank. Treatment with antibodies by intraperitoneal injection started either 1 day after cell inoculation (prophylactic model) or when tumors reached approximately 100 mm^3 (established model). Antibodies were administered in 200 μL of PBS. Treatment with PBS only or isotype IgG were used as controls. Macrophages or NK-cells were depleted by i.p. administration of 0.1 ml clodronate liposomes (Clophosome-A, FormuMax, Scientific Inc. Palo Alto, USA) or 20 μl anti-asialo GM1 pCI Ab (CL8955, Cedarlane Laboratories Limited, Canada) respectively, starting one day prior to antibody treatment, followed by administration twice weekly for a total of three weeks, PBS was used as control.
Tumor size was measured using a digital calliper and tumor volumes were calculated according to the formula width^2×length×0.52, as previously described (Cao et al., 1999).
Statistical analyses of tumor growth inhibition relative to control antibody treatment were carried out using Kruskal-Wallis nonparametric ANOVA with Dunn's multiple comparisons test or Mann-Whitney non-parametric analysis, as indicated in the figure legends.

Molecule | binding to mouse FcγRIV, order (mouse FcγRIV) | In vivo serum concentrations [3] [µg/mL] | in vivo antitumor activity of Fc-variants, order (ARH-77 tumors) | further results
CC(=O)O[C@H]1C(=O)[C@@]2(C)[C@H]([C@H](OC(=O)c3ccccc3)[C@]3(O)C[C@H](OC(=O)[C@H](O)[C@@H](NC(=O)c4ccccc4)c4ccccc4)C(C)=C1C3(C)C)[C@]1(OC(C)=O)CO[C@@H]1C[C@@H]2O [paclitaxel, reference compound] | – | – | – | cell death in normal cells [1]: induced significant PCD
CC(C)C[C@H](NC(=O)[C@H](Cc1ccccc1)NC(=O)c1cnccn1)B(O)O [bortezomib, reference compound] | – | – | – | bone osteoclasts (primary patient MM cells; TRAP staining, compared to control-treated mice): reduced numbers of bone osteoclasts; serum human IgG levels (primary patient MM cells; antibody 2 mg/kg or bortezomib 1 mg/kg twice weekly): halted or reduced serum human IgG levels to below pre-treatment levels
B1 | IgG1 N297Q<IgG4<IgG1 | 9.6 ± 3 | IgG1 N297Q<IgG4<IgG1 | binding to human FcγR (human FcγRIIIa): did not bind to human FcγR; ADCP (RPMI-8226 cells): did not confer ADCP; ADCP [2]: did not confer ADCP
B2 | IgG1 N297Q<IgG4<IgG1 | 13 ± 3.1 | IgG1 N297Q<IgG4<IgG1 | –
